According to patent US20200048631:

Key:
Gal4-VP16 = test: cell_activity; conditions: 0.5 ug Gal4 plasmid, no tTA
[1] = system: tTA (tetracycline transactivator, TetR-VP16); test: cell_activity; conditions: 0.5 ug tTA plasmid, no Gal4
[2] = 0.1 without TF, 16.0 with both TFs at 0.5 ug

Substance	activity (Gal4-VP16; [2])	activity [1, 2]	activity (Gal4-VP16; <0.1 without TF, HEK293FT, synergy with tTA)	activity ([1]; <0.1 without TF, HEK293FT, synergy with Gal4)
H2 hybrid promoter pT2U3 (TetO and UAS, CMV minimal promoter)	4 % ON cells	0.8 % ON cells		
H1 hybrid promoter pT2U2T2U2 (TetO and UAS, CMV minimal promoter)			9.2 % ON cells	3.1 % ON cells
